This note sets out measurements from the supplement of paper PMC12458215.

± gives the uncertainty stated by the source.

The test system of the data set is HEK293T. Put plainly: plasma membrane surface immunostaining intensity (anti-HA, deep receptor scanning) (arbitrary fluorescence units); higher = higher plasma membrane expression.

As for “MRAPGALLARMSRLLLLLLLKVSASSALGVAPASRNETCLGESCAPTVIQRRGRDAWGPGNSARDVLRARAPREEQGAAFLAGPSWDLPAAPGRDPAAGRGAEASAAGPPGPPTRPPGPWRWKGARGQEPSETLGRGNPTALQLFLQISEEEEKGPRGAGISGRSQEQSVKTVPGASDLFYWPRRAGKLQGSHHKPLSKTANGLAGHEGWTIALPGRALAQNGSLGEGIHEPGGPRRGNSTNRRVRLKNPFYPLTQESYGAYAVMCLSVVIFGTGIIGNLAVMCIVCHNYYMRSISNSLLANLAFWDFLIIFFCLPLVIFHELTKKWLLEDFSCKIVPYIEVASLGVTTFTLCALCIDRFRAATNVQMYYEMIENCSSTTAKLAVIWVGALLLALPEVVLRQLSKEDLGFSGRAPAERCIIKISPDLPDTIYVLALTYDSARLWWYFGCYFCLPTLFTITCSLVTARKIRKAEKACTRGNKRQIQLESQMNCTVVALTILYGFCIIPENICNIVTAYMATGVSQQTMDLLNIISQFLLFFKSCVTPVLLFCLCKPFSRAFMECCCCCCEECIQKSSTVTSDDNDNEYTTELELSPFSTIRREMSTFASVGTHC [GPR37]”, the “plasma membrane surface immunostaining intensity” value (GPCR class: A) stood at 158 ± 26.
On the same count and under the same terms, with “MLGIMAWNATCKNWLAAEAALEKYYLSIFYGIEFVVGVLGNTIVVYGYIFSLKNWNSSNIYLFNLSVSDLAFLCTLPMLIRSYANGNWIYGDVLCISNRYVLHANLYTSILFLTFISIDRYLIIKYPFREHLLQKKEFAILISLAIWVLVTLELLPILPLINPVITDNGTTCNDFASSGDPNYNLIYSMCLTLLGFLIPLFVMCFFYYKIALFLKQRNRQVATALPLEKPLNLVIMAVVIFSVLFTPYHVMRNVRIASRLGSWKQYQCTQVVINSFYIVTRPLAFLNSVINPVFYFLLGDHFRDMLMNQLRHNFKSLTSFSRWAHELLLSFREK [SUCNR1]” the figure was 528 ± 61.
For the sequence “MLGPAVLGLSLWALLHPGTGAPLCLSQQLRMKGDYVLGGLFPLGEAEEAGLRSRTRPSSPVCTRFSSNGLLWALAMKMAVEEINNKSDLLPGLRLGYDLFDTCSEPVVAMKPSLMFLAKAGSRDIAAYCNYTQYQPRVLAVIGPHSSELAMVTGKFFSFFLMPQVSYGASMELLSARETFPSFFRTVPSDRVQLTAAAELLQEFGWNWVAALGSDDEYGRQGLSIFSALAAARGICIAHEGLVPLPRADDSRLGKVQDVLHQVNQSSVQVVLLFASVHAAHALFNYSISSRLSPKVWVASEAWLTSDLVMGLPGMAQMGTVLGFLQRGAQLHEFPQYVKTHLALATDPAFCSALGEREQGLEEDVVGQRCPQCDCITLQNVSAGLNHHQTFSVYAAVYSVAQALHNTLQCNASGCPAQDPVKPWQLLENMYNLTFHVGGLPLRFDSSGNVDMEYDLKLWVWQGSVPRLHDVGRFNGSLRTERLKIRWHTSDNQKPVSRCSRQCQEGQVRRVKGFHSCCYDCVDCEAGSYRQNPDDIACTFCGQDEWSPERSTRCFRRRSRFLAWGEPAVLLLLLLLSLALGLVLAALGLFVHHRDSPLVQASGGPLACFGLVCLGLVCLSVLLFPGQPSPARCLAQQPLSHLPLTGCLSTLFLQAAEIFVESELPLSWADRLSGCLRGPWAWLVVLLAMLVEVALCTWYLVAFPPEVVTDWHMLPTEALVHCRTRSWVSFGLAHATNATLAFLCFLGTFLVRSQPGCYNRARGLTFAMLAYFITWVSFVPLLANVQVVLRPAVQMGALLLCVLGILAAFHLPRCYLLMRQPGLNTPEFFLGGGPGDAQGQNDGNTGNQGKHE [TAS1R3]”, under “GPCR class: Taste”, the “plasma membrane surface immunostaining intensity” value was 122 ± 9.1.
Consider “MNSENLTRAAVAPAEFVLLGITNRWDLRVALFLTCLPVYLVSLLGNMGMALLIRMDARLHTPMYFFLANLSLLDACYSSAIGPKMLVDLLLPRATIPYTACALQMFVFAGLADTECCLLAAMAYDRYVAIRNPLLYTTAMSQRLCLALLGASGLGGAVSAFVHTTLTFRLSFCRSRKINSFFCDIPPLLAISCSDTSLNELLLFAICGFIQTATVLAITVSYGFIAGAVIHMRSVEGSRRAASTGGSHLTAVAMMYGTLIFMYLRPSSSYALDTDKMASVFYTLVIPSLNPLIYSLRNKEVKEALRQTWSRFHCPGQGSQ [OR5C1]”, for which the “plasma membrane surface immunostaining intensity” value (GPCR class: A (Olfactory)) was 177 ± 14.
As to “MASPSNDSTAPVSEFLLICFPNFQSWQHWLSLPLSLLFLLAMGANTTLLITIQLEASLHQPLYYLLSLLSLLDIVLCLTVIPKVLAIFWFDLRSISFPACFLQMFIMNSFLTMESCTFMVMAYDRYVAICHPLRYPSIITDQFVARAVVFVIARNAFVSLPVPMLSARLRYCAGNIIKNCICSNLSVSKLSCDDITFNQLYQFVAGWTLLGSDLILIVISYSFILKVVLRIKAEGAVAKALSTCGSHFILILFFSTVLLVLVITNLARKRIPPDVPILLNILHHLIPPALNPIVYGVRTKEIKQGIQNLLKRL [OR56A4]”, the “plasma membrane surface immunostaining intensity” value (GPCR class: A (Olfactory)) turned out to be 419 ± 210.
